The term Kd denotes the equilibrium constant for the complex coming apart. The low end stands for higher affinity, the high end for lower affinity.

These results are taken from PMC3887192.

For the experiment, the target named is HLA A*0201-…. The experiment is described as follows: SPR. Conditions: 25 °C.

In the case of “ILA1 TCR ILA1α1 (CDR3 mutations, not printed)”, the equilibrium dissociation constant (Kd) is 26 nM, the dG is -9.65 kcal/mol-1 and the other: Half-life stood at 1100 s.

On to “ILA1 TCR ILA1α1β1 (CDR2&3 mutations, not printed)”, for which the equilibrium dissociation constant (Kd) came out at 2 nM.

Substance “ILA1 TCR ILA1α1β2 (CDR2&3 mutations, not printed)” yielded a Kd of 3.1 nM.

In turn, “ILA1 TCR ILA1β1 (CDR2 mutations, not printed)” came in with a Kd of 9.5 nM.

In turn, “ILA1 TCR ILA1β2 (CDR2 mutations, not printed)” gave a Kd of 9.1 nM.

“MEL5 TCR MEL5β1 (CDR2 mutations, not printed)” gave a Kd of 1800 nM, a dG of -7.31 kcal/mol-1 and an other: Half-life of 2.4 s.

Regarding “MEL5 TCR MEL5β2 (CDR2 mutations, not printed)”, the Kd turned out to be 1300 nM, the dG is -7.49 kcal/mol-1 and the other: Half-life was 2.4 s.

The substance “MEL5 TCR MEL5β3 (CDR2 mutations, not printed)” showed a Kd of 850 nM, a dG of -7.72 kcal/mol-1 and an other: Half-life of 4.2 s.

In turn, “MEL5 TCR MEL5β4 (CDR2 mutations, not printed)” registered a Kd of 1400 nM, a dG of -7.45 kcal/mol-1 and an other: Half-life of 3 s.

“MEL5 TCR MEL5β5 (CDR2&3 mutations, not printed)” showed a Kd of 2100 nM, a dG of -7.22 kcal/mol-1 and an other: Half-life of 1.2 s.

As to “MEL5 TCR MEL5β6 (CDR2&3 mutations, not printed)”, the equilibrium dissociation constant (Kd) was 210 nM, the dG is -8.49 kcal/mol-1 and the other: Half-life was determined as 11.4 s.

For “MEL5 TCR MEL5β7 (CDR2&3 mutations, not printed)”, the Kd was found to be 540 nM, the dG was -7.97 kcal/mol-1 and the other: Half-life came out at 27.6 s.

As to “MEL5 TCR MEL5β8 (CDR2&3 mutations, not printed)”, the Kd was 170 nM, the dG was -8.61 kcal/mol-1 and the other: Half-life stood at 49.2 s.
